The assay addresses T1, rhCD6FC/Chimera (R and D systems) (human, UniProt P30203 25-398).
T1 construct: Bought reagent (R and D systems), coated on the ELISA plate; also called CD6 receptor; Fc part of the bought chimera not given
T1 sequence (looked up): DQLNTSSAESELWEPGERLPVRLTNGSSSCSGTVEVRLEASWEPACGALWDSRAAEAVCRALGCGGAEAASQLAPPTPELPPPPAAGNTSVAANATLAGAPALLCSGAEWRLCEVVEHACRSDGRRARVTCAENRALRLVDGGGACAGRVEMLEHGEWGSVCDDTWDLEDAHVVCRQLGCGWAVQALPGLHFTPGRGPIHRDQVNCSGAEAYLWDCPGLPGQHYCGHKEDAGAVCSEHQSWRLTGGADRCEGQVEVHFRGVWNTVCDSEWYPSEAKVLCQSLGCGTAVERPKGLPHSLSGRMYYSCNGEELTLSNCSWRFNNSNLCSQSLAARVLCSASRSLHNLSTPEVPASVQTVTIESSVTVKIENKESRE
The assay can be described thus: ELISA, CD6-Fc coated plate, fixed T1h with varying ALCAM-Fc as competitor. On the procedure: When varying concentrations of ALCAM-Fc was incubated along with a fixed concentration of T1h in a CD6-Fc coated ELISA plate, T1h was detected at all concentration of ALCAM-Fc.
The rhCD6FC/Chimera (R and D systems) (100 ≈g/ml) was diluted in coating buffer and 100 ≈l was added to each well of a 96 well Nunc-Maxisorp plate. The plate was then incubated at 4éC overnight. The Plate was washed thrice with PBS Tween 20. Subsequently, 200 ≈l of blocking solution (2% BSA+0.1% Tween 20 in 1×PBS) was added and incubated for 1 hour at 37éC. After incubation, the plate was washed again with PBS Tween thrice, followed by the addition of T1h monoclonal antibody (0.2 mg/ml) and .rhA LCAMFc (R and D systems) at varying concentrations. This was then incubated for an hour at 37éC. The plate was washed 3 times subsequently with PBS Tween. To the wells 200 ≈l of anti human IgG (Fab)₂ ALP (1:20000) diluted in blocking buffer was added and incubated for 1 hour at 37éC. The plate was washed thrice with PBS tween and 200 ≈l of p-Nitrophenyl Phosphate (PNPP) substrate is added to each well and incubated at 37éC till color develops around 15 minutes. Reading was taken at 405 nm using a BIOTEK Micro Plate Reader.
For orientation: ELISA stands for enzyme-linked immunosorbent assay.

Results on 1 molecule are retold here after patent US20190241670A1 (BIOCON, published 2019).

B1: humanized IgG1 isotype anti-CD6 monoclonal antibody (T1h) (antibody, V domains shown)
VH: EVQLVESGGGLVKPGGSLKLSCAASGFKFSRYAMSWVRQAPGKRLEWVATISSGGSYIYYPDSVKGRFTISRDNVKNTLYLQMSSLRSEDTAMYYCARRDYDLDYFDSWGQGTLVTVSS
VL: DIQMTQSPSSLSASVGDRVTITCKASRDIRSYLTWYQQKPGKAPKTLIYYATSLADGVPSRFSGSGSGQDYSLTISSLESDDTATYYCLQHGESPFTLGSGTKLEIK
notes: also called humanized IOR-T1; Itolizumab
As to B1, the binding result is “binds”.
